Assay results from the supplement of paper PMC9170038.

Tested on: MS2 coat protein
Test: apparent KD of MS2 coat protein; designed switch direction (-1 OFF switch, 1 ON switch): -1; higher = weaker reporter binding
In short: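 Transcription of designed RNA switches on Illumina chips was done by stalled E. coli RNA polymerase. SNAP-549-labelled MS2 coat protein was then titrated in doubling steps from 0.7 or 1.5 nM to 3 µM, with steps of 0.8–1.5 h at the lowest and 10–20 min at the highest concentration. The per-design median over clusters of curve-fitted normalised fluorescence is reported as apparent KD.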

[1] = input ligand: microRNA oligo, concentration not stated
[2] = Eterna round: R95, input ligand: FMN 200 uM
[3] = Eterna round: R95, input ligand: microRNA oligo, concentration not stated
[4] = Eterna round: R95, input ligand: none

Row | Sequence | apparent KD of MS2 coat protein (input ligand: FMN 200 uM) | apparent KD of MS2 coat protein (input ligand: none) | apparent KD of MS2 coat protein [1] | apparent KD of MS2 coat protein [2] | apparent KD of MS2 coat protein [3] | apparent KD of MS2 coat protein [4]
1 | UAAGAGUGAGGAUAUACGUCGCUGGCCCGGAUGGACGCAUGACAUGAGGAUCACCCAUGUAGAAGGCACAAAAC [Enxela Mod 14 - Jieux - Exclusion 2] (Eterna round: R97, puzzle: Exclusion 2) | 34.7 nM | 29.7 nM | – | – | – | –
2 | CCGGCAUGAGGAUAUCCAUCUGGAUCAGACAAGAUCCUGAUGGAGAAGGCACAUGAGGAUCACCCAUGUUACGG [Mat - Exclusion 4 - Eli Mod - D56] (Eterna round: R97, puzzle: Exclusion 4) | 61.8 nM | 132 nM | – | – | – | –
3 | UUAUUAUAUGUAGGAUAUGCAUAUUGUUGUUAUGCAGAAGGACAUGAGGAUCACCCAUGUAUAUUGUUGUUGUAUAUUAUAUAU [Title] (Eterna round: R96, puzzle: Exclusion NG 1) | 33.2 nM | 23.3 nM | 22.6 nM | – | – | –
4 | UUACGGUAGAUCGUGGCUUUUUGCUCGUCUUGUGCUACAACAUGAGGAUCACCCAUGUAGAGGUGAUCUAUUGUAUU [Grok-var2-20 mod JAL] (puzzle: Sensor v3, turn-off variant 2) | – | – | – | 51.9 nM | 17.8 nM | 74.5 nM
5 | UAACCUAUUGUCAGGAUAUCUACGUGGUAUCAUGAGGAGAAGGGACAUGAGGAUCACCCAUGUGGAAGGGAAAA [Beques] (puzzle: Brourd's mod of Exclusion 4) | – | – | – | 60.2 nM | 31.1 nM | 48.3 nM
6 | AAAAUGGCAGGAUAUACAUGAGGAUCACCCAUGUUCGUCUUUACAUGUAAAAUGCUCUGUAGAAGGGCCUCGAA [Quised] (Eterna round: R97, puzzle: Exclusion 3) | 47.1 nM | 21.9 nM | – | – | – | –
7 | AAAAGGCUAGGAUAUACAUGAGGAUCACCCAUGUGUACUGGACAUGCGGUAUGCGGAUGUAGAAGGAGUAUAAA [Esrere] (puzzle: Exclusion 3) | – | – | – | – | 22.4 nM | –
8 | AACGACGGAGGAUAUACACCCUGGGACUCAUUAUCCCUUAGACAUGAGGAUCACCCAUGUAGAAGGCCGAACAC [EX2 B.3] (Eterna round: R97, puzzle: Exclusion 2) | 174 nM | 29.8 nM | – | – | – | –
9 | UUACAAUGUCGCUUACAAGCUUUUUGCUCGUCUUAUAUUACAUGAGGAUCACCCAUGUAGAUCAUGUGGCGUGACCU [JL ViennaUCT Maridi mod 9] (puzzle: Sensor v3, turn-off variant 2) | – | – | – | 165 nM | 23.3 nM | 208 nM
10 | CCUUAUUAUCGAGGAUAUCCUAUUGAAAUUCUGGGAGAAGGCGGACUCAACAUGAGGAUCACCCAUGUGGGACGGAUGCUAGGA [salish99_exng1_r04_603] (Eterna round: R96, puzzle: Exclusion NG 1) | 21 nM | 20.2 nM | 13.5 nM | – | – | –
11 | CUGAGCUGAGGAUAUACAUGAGGAUCACCCAUGUUAAGCAGCUUGCGUAAAAGCAGAUGUAGAAGGCAGUUCGG [Mod of JL 18 - Jieux - Exclusion 3] (Eterna round: R97, puzzle: Exclusion 3) | 18.1 nM | 13.7 nM | – | – | – | –
12 | GAGUUAGCGUGAGGAAUAUACAUGAGGAUCACCCAUGUUAGCUUAUAUAUUGCUCGUCUUAUAACAACAAUUAACUG [Mod JX-Electric-eye2] (Eterna round: R97, puzzle: Sensor, turn-off variant 1) | 25.4 nM | 27.2 nM | – | – | – | –
13 | GGUACUAACACGAAAGUGUUAGUACUAUAAGCUUGUGUUACAUGAGGAUCACCCAUGUCCUCAUAAGCUCGUCUUGU [JL-sv3-2.19 mat747 mod] (puzzle: Sensor v3, turn-off variant 2) | – | – | – | 45.4 nM | 44.2 nM | 44.9 nM
14 | UUAUUACAAGCAAGAUCCCACAUGAGGAUCACCCAUGUGCUCGUCUUAUAAGGUACUGUGACGAAAGUCACGGUACC [Sensor 3, v1 - 100] (puzzle: Sensor v3, turn-off variant 1) | – | – | – | 25.8 nM | 701 nM | 24.7 nM
15 | GCAGAUGAAGUGAGGAUAUGCUCUACCUCGGUAGAGCAGAAGGCACAUGAGGAUCACCCAUGUGAUUCAUCUGC [Omei Ex4B B6] (Eterna round: R97, puzzle: Brourd's mod of Exclusion 4) | 35.4 nM | 17 nM | – | – | – | –
16 | GAGGCUAAAGGAUAUACAUGAGGAUCACCCAUGUGGAGGAAGGUUAGAUGAGGAGAAGGUAGAAGGUUAGGCGG [JR_Exclu3_Sub094] (puzzle: Exclusion 3) | – | – | – | – | 31.1 nM | –

Row | Sequence | apparent KD of MS2 coat protein (input ligand: FMN 200 uM) | apparent KD of MS2 coat protein (input ligand: none) | apparent KD of MS2 coat protein [1] | apparent KD of MS2 coat protein [2] | apparent KD of MS2 coat protein [3] | apparent KD of MS2 coat protein [4]
17 | ACAUGAGGAUCACCCAUGUGAAACCAAUGGCUGACUUUGAGACAGGAUAUUCGUGCAUAUCAUACGAAGAAGGGUCAUUACUGG [Deportation 96 - Jieux - Exclusion NG 3] (Eterna round: R96, puzzle: Exclusion NG 3) | 63.5 nM | 55.2 nM | 45.8 nM | – | – | –
18 | CUACUCGUUGUGAGGAUAUCGUUUUCGUCACGGAUCGAGAAGGCACAUGAGGAUCACCCAUGUUUGAUGUGGAU [JR_BMOE4_Sub091] (Eterna round: R96, puzzle: Brourd's mod of Exclusion 4) | 89 nM | 38.1 nM | 29.9 nM | – | – | –
19 | CUCACGCUCGAGGAUAUCGCACAAAACAAUCAACGAGAAGGCGAGACAUGAGGAUCACCCAUGUGUGGUCAAGA [Ceceed] (Eterna round: R97, puzzle: Exclusion 6) | 80.9 nM | 590 nM | – | – | – | –
20 | GUCGUGCAGCUUUGCUGUACGAGUACAUGAGGAUCACCCAUGUAGGAUAUGGUACGCUUUGCGUGCUAGAAGGAUAUGUGUAGG [salish99_ExNG3_r04_501] (Eterna round: R96, puzzle: Exclusion NG 3) | 49.3 nM | 44.3 nM | 41.7 nM | – | – | –
21 | AGUACUAACACGGUUGUGUUAGUACAAUAAGCUUGUGAAACAUGAGGAUCACCCAUGUCCUCAUAAGCUCGUCUUAU [salish99_TOv2_r3_070] (Eterna round: R96, puzzle: Sensor v3, turn-off variant 2) | 15 nM | 17.3 nM | 464 nM | – | – | –
22 | CUGAGUAGUCAGGAUAUGCUGUACAAAAGUACAGCAGAAGGGAUUACAUGAGGAUCACCCAUGUGUACUUCAUG [)mei Ex6 B20] (Eterna round: R97, puzzle: Exclusion 6) | 401 nM | 184 nM | – | – | – | –
23 | AAUUAACAAGCGAGAUCCUACAUGAGGAUCACCCAUGUGCUCGUCUUAUAAAGUACUAUCACGAAAGUGAUAGUACA [Mat - Sensor v3 - turn-off var 1 - Eli Mod - D64] (puzzle: Sensor v3, turn-off variant 1) | – | – | – | 21.8 nM | 215 nM | 19.5 nM
24 | GGUUGGCGAGGAUAUACAUGAGGAUCACCCAUGUGAGAGAAAAAAGUGAGGCAGAAAAGUAGAAGGCGCUGACG [salish99_ex3_r3_031] (puzzle: Exclusion 3) | – | – | – | 137 nM | 29.8 nM | 96.8 nM
25 | CAGUACUGAGGAUAUACAUGAGGAUCACCCAUGUGUGUGAGAUUUGUGUGGUUGUUUUGUAGAAGGCGGUGCUG [JR_Ex3_Sub031] (Eterna round: R97, puzzle: Exclusion 3) | 19.1 nM | 91.2 nM | – | – | – | –
26 | UGUCAGAUGGUAGGAUAUCCAUAUUGAGUGACCCUUUCAUAACAUGAGGAUCACCCAUGUCGGUGGGAGAAGGGCCGUAUGGUG [salish99_ExNG02_R04_028] (Eterna round: R96, puzzle: Exclusion NG 2) | 53.7 nM | 33.8 nM | 21.9 nM | – | – | –
27 | CCCGUCGAUGUAGGAUAUGCCCGGGUCUCCCGGGCAGAAGGACAUGAGGAUCACCCAUGUUCAUGAGGAUCACCCGUGAAUGGG [Double but mutated MS2] (Eterna round: R96, puzzle: Exclusion NG 1) | 13.1 nM | 16.3 nM | 13 nM | – | – | –
28 | AGAUGUAGAUACCGGUCCUACAUGAGGAUCACCCAUGUAGCUAGACGUGCGGGCGGCGCUCGUCGGACUACCAGUAG [salish99_TOv1_r3_098] (puzzle: Sensor v3, turn-off variant 1) | – | – | – | 39.4 nM | 42.8 nM | 59.7 nM
29 | AGUACCUGAGUACAAUGUAACAUGAGGAUCACCCAUGUAAUUGGGUGAGAACAAGCUCACCGUUCGUCUUAAAUAAA [JL turnoff v1 80] (Eterna round: R96, puzzle: Sensor v2, turn-off variant) | 485 nM | 501 nM | 55.3 nM | – | – | –
30 | UUUACAAGCUUAAGAUCCCACAUGAGGAUCACCCAUGUUCCUGGCCGUGAGGCUAGGUAAACUUAUGCUCGUCUUAU [JL TOV1 3.68] (Eterna round: R97, puzzle: Sensor, turn-off variant 1) | 141 nM | 138 nM | – | – | – | –
31 | GUAAUUAAUGUAGGAUAUGCAAGGCGAACCUAAGCAGAAGGACAUGAGGAUCACCCAUGUAAUGCGGUCUGCGUACAGAUCGCU [salish99_ExNG1_r4_007] (Eterna round: R96, puzzle: Exclusion NG 1) | 47.8 nM | 24.2 nM | 13.2 nM | – | – | –
32 | GGUAGAGUGGUAGGAUAUCCGUCUGUUUCAGUCGGAGAAGGACCACAGUCACUGGGUCCUAAUAUGGGUGACCAUGUAUCUACC [pwkr exNG1 F6.11] (Eterna round: R96, puzzle: Exclusion NG 1) | 1340 nM | 348 nM | 279 nM | – | – | –
